Assay results: patent US20200308292A1 (ARMAGEN TECHNOLOGIES, published 2020)
Each block holds one binder with its values, some of them ahead of it.

What was measured:
[1] = biological target: T1, human insulin receptor extracellular domain (HIR ECD) (human, UniProt P06213 28-956, limits assumed); assay: ELISA, HIR ECD plated; after normalization for MW (150 kDa)
T1 construct: extracellular domain
Procedure: (§1) The affinity of the fusion protein for the HIR extracellular domain (ECD) was determined with an ELISA. CHO cells permanently transfected with the HIR ECD were grown in serum free media (SFM), and the HIR ECD was purified with a wheat germ agglutinin affinity column, as previously described in Coloma et al. (2000) Pharm Res, 17:266-274. The HIR ECD was plated on Nunc-Maxisorb 96 well dishes and the binding of the HIR Ab, or the HIR Ab-SGSH fusion protein, to the HIR ECD was detected with a biotinylated goat anti-human IgG (H+L) secondary antibody, followed by avidin and biotinylated peroxidase (Vector Labs, Burlingame, Calif.). […] The MW of the HIR Ab is 150 kDa, and the MW of the HIR Ab-SGSH fusion protein is 325 kDa.

[2] = biological target: T1, human insulin receptor extracellular …; assay: ELISA, HIR ECD plated, biotinylated anti-human IgG detection
Procedure: as §1

[3] = biological target: T1, human insulin receptor extracellular …; assay: ELISA, HIR ECD plated; after normalization for MW (325 kDa)
Procedure: as §1

EC50 [1]: 0.19 nM
EC50 [2]: 0.029 µg/mL
B1: chimeric HIRMAb (monoclonal antibody to the human insulin receptor) (antibody, human IgG1, kappa)
heavy: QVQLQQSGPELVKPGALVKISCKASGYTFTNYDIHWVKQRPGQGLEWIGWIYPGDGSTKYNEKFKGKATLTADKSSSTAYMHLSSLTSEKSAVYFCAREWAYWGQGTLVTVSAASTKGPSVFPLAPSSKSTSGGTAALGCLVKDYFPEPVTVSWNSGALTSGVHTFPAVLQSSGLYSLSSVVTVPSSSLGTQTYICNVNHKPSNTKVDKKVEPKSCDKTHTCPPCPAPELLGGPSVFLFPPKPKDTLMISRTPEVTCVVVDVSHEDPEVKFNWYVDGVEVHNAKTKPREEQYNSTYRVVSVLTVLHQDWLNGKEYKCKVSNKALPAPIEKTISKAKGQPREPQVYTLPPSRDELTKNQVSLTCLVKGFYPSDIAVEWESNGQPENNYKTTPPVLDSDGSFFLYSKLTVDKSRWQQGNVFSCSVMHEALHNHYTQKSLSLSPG
light: DIQMTQSPSSLSASLGERVSLTCRASQDIGGNLYWLQQGPDGTIKRLIYATSSLDSGVPKRFSGSRSGSDYSLTISSLESEDFVDYYCLQYSSSPWTFGGGTKMEIKRTVAAPSVFIFPPSDEQLKSGTASVVCLLNNFYPREAKVQWKVDNALQSGNSQESVTEQDSKDSTYSLSSTLTLSKADYEKHKVYACEVTHQGLSSPVTKSFNRGEC
notes: Its tie to the tested chimeric HIRMAb is indirect; MW 150 kDa; also called HIR Ab; chimeric HIR Ab

EC50 [3]: 0.33 nM
EC50 [2]: 0.107 µg/mL
B2: HIRMAb-SGSH fusion protein (antibody, human IgG1, kappa)
heavy: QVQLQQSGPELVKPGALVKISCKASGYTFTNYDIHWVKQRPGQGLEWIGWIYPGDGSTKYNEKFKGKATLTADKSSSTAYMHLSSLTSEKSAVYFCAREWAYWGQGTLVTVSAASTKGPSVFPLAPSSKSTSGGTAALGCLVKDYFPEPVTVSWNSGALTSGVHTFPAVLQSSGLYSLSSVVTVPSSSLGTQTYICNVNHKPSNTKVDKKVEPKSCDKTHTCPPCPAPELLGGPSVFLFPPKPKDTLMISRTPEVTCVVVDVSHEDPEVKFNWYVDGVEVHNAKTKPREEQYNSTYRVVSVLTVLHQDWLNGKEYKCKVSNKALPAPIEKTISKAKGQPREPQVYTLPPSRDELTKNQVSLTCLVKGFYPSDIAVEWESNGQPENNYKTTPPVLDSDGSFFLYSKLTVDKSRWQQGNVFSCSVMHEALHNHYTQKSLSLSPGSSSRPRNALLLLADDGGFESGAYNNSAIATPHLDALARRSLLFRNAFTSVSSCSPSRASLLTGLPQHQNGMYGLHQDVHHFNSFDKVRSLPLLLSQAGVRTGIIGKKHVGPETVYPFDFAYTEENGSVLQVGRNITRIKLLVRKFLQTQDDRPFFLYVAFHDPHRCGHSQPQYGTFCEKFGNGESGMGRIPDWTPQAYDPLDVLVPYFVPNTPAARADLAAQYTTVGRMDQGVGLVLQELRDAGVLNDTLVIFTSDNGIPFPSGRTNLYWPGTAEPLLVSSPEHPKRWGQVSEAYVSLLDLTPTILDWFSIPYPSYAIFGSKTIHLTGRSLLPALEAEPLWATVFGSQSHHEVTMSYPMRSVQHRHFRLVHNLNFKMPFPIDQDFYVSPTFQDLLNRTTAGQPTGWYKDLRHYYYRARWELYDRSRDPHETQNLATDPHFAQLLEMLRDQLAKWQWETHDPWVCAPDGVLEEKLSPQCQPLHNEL
light: B1 light
modifications: Cys-514 of SEQ ID NO 10 undergoes post-translational conversion to formylglycine (inferred by the filing from retained enzyme activity)
notes: IgG-enzyme fusion, hetero-tetramer, CHO-derived, estimated MW 325 kDa; also called HIR Ab-SGSH fusion protein; HIR Ab-SGSH fusion antibody
